# Laboratory results published in patent US20040014131A1, “Assay methods” (Pfizer Inc., priority 2002, published 2004).
# [ ]: non-standard residue; d: D form. QSY7 = QSY-7 (maleimide) on Cys; βAla = NCCC(=O)O
# T1: human SEP (Homo sapiens, UniProt Q495T6)
# T1 construct: The full length human SEP clone was termed MSSE82; made in house; host or cells: CHO cells transfected with plasmid MSSE82; dialysed culture medium used as enzyme
# T1 sequence (Q495T6 75-779 limits assumed): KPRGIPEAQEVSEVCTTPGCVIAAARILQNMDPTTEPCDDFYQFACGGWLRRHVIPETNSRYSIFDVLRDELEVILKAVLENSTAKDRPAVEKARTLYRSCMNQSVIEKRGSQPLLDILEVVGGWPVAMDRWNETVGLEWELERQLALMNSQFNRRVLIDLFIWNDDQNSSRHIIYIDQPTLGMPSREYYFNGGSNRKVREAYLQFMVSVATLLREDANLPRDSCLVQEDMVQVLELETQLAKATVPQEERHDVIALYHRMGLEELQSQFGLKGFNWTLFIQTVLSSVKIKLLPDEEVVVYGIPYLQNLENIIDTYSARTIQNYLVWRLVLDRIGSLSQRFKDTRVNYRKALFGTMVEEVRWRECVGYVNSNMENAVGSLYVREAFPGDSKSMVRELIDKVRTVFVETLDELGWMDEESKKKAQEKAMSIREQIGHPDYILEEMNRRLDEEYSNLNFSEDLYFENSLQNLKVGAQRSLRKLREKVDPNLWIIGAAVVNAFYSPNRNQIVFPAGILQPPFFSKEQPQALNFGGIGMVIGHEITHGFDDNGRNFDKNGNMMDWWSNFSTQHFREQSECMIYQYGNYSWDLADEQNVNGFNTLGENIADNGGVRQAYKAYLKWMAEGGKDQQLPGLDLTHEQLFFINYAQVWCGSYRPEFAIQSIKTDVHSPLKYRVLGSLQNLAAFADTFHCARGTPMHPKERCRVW
# T2: mouse SEP (Mus musculus, UniProt Q9JLI3)
# T2 sequence (Q9JLI3 1-765): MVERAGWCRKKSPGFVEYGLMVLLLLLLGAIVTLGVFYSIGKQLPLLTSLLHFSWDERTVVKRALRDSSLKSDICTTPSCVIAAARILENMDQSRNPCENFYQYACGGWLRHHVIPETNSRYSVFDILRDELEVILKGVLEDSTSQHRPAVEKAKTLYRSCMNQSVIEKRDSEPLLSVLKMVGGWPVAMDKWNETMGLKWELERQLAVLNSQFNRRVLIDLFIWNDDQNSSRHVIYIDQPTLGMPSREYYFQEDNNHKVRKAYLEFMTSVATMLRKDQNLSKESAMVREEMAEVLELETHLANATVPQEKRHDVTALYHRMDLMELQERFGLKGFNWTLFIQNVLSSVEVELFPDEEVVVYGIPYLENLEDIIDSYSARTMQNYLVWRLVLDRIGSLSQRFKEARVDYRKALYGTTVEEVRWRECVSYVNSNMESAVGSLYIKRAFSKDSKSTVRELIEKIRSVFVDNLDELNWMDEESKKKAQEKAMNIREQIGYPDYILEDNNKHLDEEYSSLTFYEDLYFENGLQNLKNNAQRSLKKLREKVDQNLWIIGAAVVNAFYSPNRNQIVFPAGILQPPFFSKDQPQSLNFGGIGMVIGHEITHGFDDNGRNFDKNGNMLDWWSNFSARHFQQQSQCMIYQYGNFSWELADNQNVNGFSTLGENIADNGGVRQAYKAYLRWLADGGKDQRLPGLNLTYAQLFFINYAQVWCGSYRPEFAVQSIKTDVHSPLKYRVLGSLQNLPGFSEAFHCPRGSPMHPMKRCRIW
# T3: Rhodamine green-Gly-Gly-dPhe-Leu-Arg-Arg-Val-Cys(QSY7)-betaAla-NH2
# T3 chain: GGFLRRVCA
# B1: human soluble secreted endopeptidase (human SEP), recombinant (protein)
# chain: RKPRGIPEAQEVSEVCTTPGCVIAAARILQNMDPTTEPCDDFYQFACGGWLRRHVIPETNSRYSIFDVLRDELEVILKAVLENSTAKDRPAVEKARTLYRSCMNQSVIEKRGSQPLLDILEVVGGWPVAMDRWNETVGLEWELERQLALMNSQFNRRVLIDLFIWNDDQNSSRHIIYIDQPTLGMPSREYYFNGGSNRKVREAYLQFMVSVATLLREDANLPRDSCLVQEDMVQVLELETQLAKATVPQEERHDVIALYHRMGLEELQSQFGLKGFNWTLFIQTVLSSVKIKLLPDEEVVVYGIPYLQNLENIIDTYSARTIQNYLVWRLVLDRIGSLSQRFKDTRVNYRKALFGTMVEEVRWRECVGYVNSNMENAVGSLYVREAFPGDSKSMVRELIDKVRTVFVETLDELGWMDEESKKKAQEKAMSIREQIGHPDYILEEMNRRLDEEYSNLNFSEDLYFENSLQNLKVGAQRSLRKLREKVDPNLWIIGAAVVNAFYSPNRNQIVFPAGILQPPFFSKEQPQALNFGGIGMVIGHEITHGFDDNGRNFDKNGNMMDWWSNFSTQHFREQSECMIYQYGNYSWDLADEQNVNGFNTLGENIADNGGVRQAYKAYLKWMAEGGKDQQLPGLDLTHEQLFFINYAQVWCGSYRPEFAIQSIKTDVHSPLKYRVLGSLQNLAAFADTFHCARGTPMHPKERCRVW
# B2: Recombinant human NEP enzyme (neutral endopeptidase, neprilysin, EC 3.4.24.11) (protein)
# chain: DDGICKSSDCIKSAARLIQNMDATTEPCTDFFKYACGGWLKRNVIPETSSRYGNFDILRDELEVVLKDVLQEPKTEDIVAVQKAKALYRSCINESAIDSRGGEPLLKLLPDIYGWPVATENWEQKYGASWTAEKAIAQLNSKYGKKVLINLFVGTDDKNSVNHVIHIDQPRLGLPSRDYYECTGIYKEACTAYVDFMISVARLIRQEERLPIDENQLALEMNKVMELEKEIANATAKPEDRNDPMLLYNKMTLAQIQNNFSLEINGKPFSWLNFTNEIMSTVNISITNEEDVVVYAPEYLTKLKPILTKYSARDLQNLMSWRFIMDLVSSLSRTYKESRNAFRKALYGTTSETATWRRCANYVNGNMENAVGRLYVEAAFAGESKHVVEDLIAQIREVFIQTLDDLTWMDAETKKRAEEKALAIKERIGYPDDIVSNDNKLNNEYLELNYKEDEYFENIIQNLKFSQSKQLKKLREKVDKDEWISGAAVVNAFYSSGRNQIVFPAGILQPPFFSAQQSNSLNYGGIGMVIGHEITHGFDDNGRNFNKDGDLVDWWTQQSASNFKEQSQCMVYQYGNFSWDLAGGQHLNGINTLGENIADNGGLGQAYRAYQNYIKKNGEEKLLPGLDLNHKQLFFLNFAQVWCGTYRPEYAVNSIKTDVHSPGNFRIIGTLQNSAEFSEAFHCRKNSYMNPEKKCRVW
# Key:
# [1] = target: T1, human SEP; assay: human SEP activity, sensitivity to inhibitors; assay type: biochemical
# Protocol: The enzymatic (proteolytic) activity of human SEP protein can be measured in an assay involving, for example, mixing a sample of the human SEP enzyme with a substrate peptide in a buffer solution (for example 50 mM HEPES; pH 7.4), incubating the mixture for a period of time (such as 1-3 hours) enough for human SEP to act to cleave a measurable portion of the peptide substrate to a product at a temperature suitable for SEP activity (typically 30-37° C.).
# The effect of candidate human SEP inhibitor compounds or control test compounds such as phosphoramidon and thiorphan that may alter the activity of human SEP can be measured in this type of assay by including them in the initial mixture at a range of suitable test concentrations, typically 0.1 nM to 50 μM.
# To determine the IC50 of SEP inhibitors (SEPi; for example, phosphoramidon), multiple SEP assays are performed as described above with a range of test concentrations of inhibitor included in the 50 μl of DMSO solution (made by appropriate dilution of a 10 mM 100% DMSO stock of inhibitor with 4% DMSO/50 mM HEPES pH7.4.). Using a suitable standard graph fitting computer program, a sigmoidal dose response curve is fitted to a plot of log inhibitor concentration versus MaxV (or % inhibition or % activity). The IC50 is calculated as the inhibitor concentration causing 50% maximal inhibition. […]
# [2] = target: T2, mouse SEP; settings: cited from earlier work
# [3] = target: T4, Recombinant human NEP enzyme (Homo sapiens, UniProt P08473); assay: NEP FRET assay (384 well, homogeneous); assay type: biochemical; settings: steady state kinetics of NEP enzyme with the peptide substrate
# T4 construct: made in house; host or cells: Pichia pastoris
# T4 sequence (P08473 whole entry): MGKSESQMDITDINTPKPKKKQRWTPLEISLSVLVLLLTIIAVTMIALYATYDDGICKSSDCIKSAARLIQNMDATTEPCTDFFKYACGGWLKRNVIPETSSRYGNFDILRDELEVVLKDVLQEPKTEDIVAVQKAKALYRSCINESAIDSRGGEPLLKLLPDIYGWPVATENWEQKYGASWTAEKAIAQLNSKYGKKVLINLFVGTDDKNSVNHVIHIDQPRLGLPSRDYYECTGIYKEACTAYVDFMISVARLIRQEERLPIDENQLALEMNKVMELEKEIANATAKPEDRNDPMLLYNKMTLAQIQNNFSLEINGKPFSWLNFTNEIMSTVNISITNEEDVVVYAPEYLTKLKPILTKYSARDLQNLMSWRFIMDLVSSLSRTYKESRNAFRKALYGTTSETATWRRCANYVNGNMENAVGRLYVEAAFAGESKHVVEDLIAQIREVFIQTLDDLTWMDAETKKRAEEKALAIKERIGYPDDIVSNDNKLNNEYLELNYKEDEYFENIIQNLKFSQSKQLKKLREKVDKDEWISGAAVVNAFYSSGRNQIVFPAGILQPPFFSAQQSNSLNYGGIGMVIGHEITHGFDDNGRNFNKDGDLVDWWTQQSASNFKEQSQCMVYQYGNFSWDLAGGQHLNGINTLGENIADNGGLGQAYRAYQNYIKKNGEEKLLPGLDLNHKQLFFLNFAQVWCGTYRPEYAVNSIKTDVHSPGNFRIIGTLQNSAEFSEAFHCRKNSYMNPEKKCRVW
# Protocol: All assays were conducted in 384 well black, flat bottom plates, purchased from Matrix Technologies Ltd. (Cheshire, UK).
# Compounds for screening were supplied as singles at 40 μM in 1% DMSO to achieve a final screening concentration of 10 μM.
# The peptide substrate (Rhodamine green-Gly-Gly-dPhe-Leu-Arg-Arg-Val-Cys(QSY™7)-βAla-NH2) (SEQ ID NO: 8) was made as described above and labelled with fluorophores purchased from Molecular Probes, Inc. All other reagents were purchased from Sigma/Aldrich (Poole, Dorset, UK).
# Recombinant human NEP enzyme was expressed using Pichia pastoris and purified to homogeneity using a three-step purification procedure.
# All assays were performed in 50 mM Hepes buffer pH 8, 0.1% v/v pluronic-F127 and 1% v/v protease inhibitor cocktail (antipain, aprotinin, leupeptin, pepstatin A). 10 μl of compound in 1% DMSO was added to each well, followed by 20 μl of recombinant enzyme (10 nM final concentration). The reaction was initiated by the addition of 10 μl of substrate (1 μM final concentration) and plates were incubated at 25° C. for one hour. Termination of the reaction was achieved by the addition of 20 μl of Stop (excess of a known inhibitor) to a concentration of 10 μM in the well. Plates were counted using Tecan Ultra (485 nm excitation, 535 nm emission; Tecan Austria, Salzburg, Austria). […]
# [4] = target: T3, Rhodamine …
Molecule,sensitivity of human SEP to inhibitor [1],sensitivity of mouse SEP to inhibitor [2],"cleavage of the FRET substrate, monitored by fluorescence [4]",other results
CC(C)C[C@H](NP(=O)(O)O[C@@H]1O[C@@H](C)[C@H](O)[C@@H](O)[C@H]1O)C(=O)N[C@@H](Cc1c[nH]c2ccccc12)C(=O)O [phosphoramidon],sensitive,sensitive,–,–
O=C(O)CNC(=O)C(CS)Cc1ccccc1 (centres unmarked) [thiorphan],sensitive,sensitive,–,–
Rhodamine green-Gly-Gly-dPhe-Leu-Arg-Arg-Val-Cys(QSY™7)-βAla-NH2 ({Rhodamine green}-GG[dF]LRRVC(QSY7)[βAla]-NH2) [CP4],–,–,–,"Kcat [3]: 0.083 s⁻¹; Km ([3]; 50 mM Hepes pH 8, 25° C.): 8 µM"
B1,–,–,"CP4 is cleaved by endopeptidases NEP or SEP, creating the cleavage product Rhodamine green-Gly-Gly-dPhe-Leu-Arg-Arg-OH",–
B2,–,–,"CP4 is cleaved by endopeptidases NEP or SEP, creating the cleavage product Rhodamine green-Gly-Gly-dPhe-Leu-Arg-Arg-OH","Kcat [4]: 0.083 s⁻¹; Kcat/Km [4]: 10,500 M^-1 S^-1; Km [4]: 8 µM"
